# Test results taken from patent EP3553078A1 (Julius-Maximilians-Universität Würzburg, dated 2019).
# T1: IL-4Rα ectodomain (site-specifically biotinylated IL-4Rα ectodomain protein) (human, UniProt P24394 26-232, site-specifically biotinylated (site not stated))
# T1 construct: extracellular domain; Immobilised on a streptavidin-coated SPR chip; also called IL-4Rα ECD; IL-4 receptor α
# T1 sequence (looked up): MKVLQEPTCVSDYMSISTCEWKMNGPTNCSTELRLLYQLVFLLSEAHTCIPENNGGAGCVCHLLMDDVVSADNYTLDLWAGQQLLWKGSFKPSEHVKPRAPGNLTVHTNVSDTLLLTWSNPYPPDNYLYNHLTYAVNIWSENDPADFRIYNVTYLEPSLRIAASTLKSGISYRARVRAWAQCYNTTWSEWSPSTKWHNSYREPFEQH
# B1: IL-4 mutein F82D Q20N T28N K61N R121C-Glc (Hek293-derived, hyper-glycosylated) (ligand)
# chain: HKCDITLQEIIKTLNSLTENKTLCTELNVTDIFAASKNTTEKETFCRAATVLRQFYSHHENDTRCLGATAQQFHRHKQLIRDLKRLDRNLWGLAGLNSCPVKEANQSTLENFLERLKTIMCEKYSKCSS
# modifications: complex N-glycans at positions 38, 20, 28 and 61; disulphide conjugated glucose at Cys121
# notes: also called Q20N/T28N/K61N/F82D/R121C-Glc; 3rd generation IL-4 antagonist; not shown: C-terminal thrombin cleavage site and hexahistidine tag of the modified pHLsec vector
# Molecular target: T1, IL-4Rα ectodomain (site-specifically …)
# Experiment: in vitro interaction analysis (SPR) on IL-4Rα
binder,measurement,value
B1,Kd,~0.218 nM
